{
  "source": "paper PMC9462685",
  "about": "(Science Advances, 2022)",
  "key": {"[1]": {"molecular_target": "Sr35 (Triticum monococcum) (UniProt S5ABD6)", "experiment": "MST"}, "[2]": {"molecular_target": "6×His-tagged AvrSr35 (residues 27 to 578) (Puccinia graminis f. sp. tritici)", "experiment": "AUC"}, "[3]": {"molecular_target": "Sr35 (Triticum monococcum) (UniProt S5ABD6)", "experiment": "cryo-EM structure"}},
  "data": [
    {"substance": "6×His-tagged AvrSr35 (residues 27 to 578) (natural protein)", "values": [
      {"measurement": "Kd", "setting": "[1]", "value": 7.8, "unit": "µM"},
      {"measurement": "stoichiometry N", "setting": "[2]", "value": 2},
      {"measurement": "stoichiometry N", "setting": "[3]", "value": 1}
    ]}
  ]
}
